This data set in a line: protein stability index of a GFP-peptide fusion (GPS, HEK-293T) (PSI 1-6); higher = more stable. The settings on record: c terminus: a fixed tail appended.

± gives the standard deviation.

Drawing on the supplement of paper PMC10567573, this text covers protein stability index for 73 sequences.
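Note: 24-mer peptide tiles fused after GFP, lentivirally expressed, FACS-sorted into six equal bins by GFP/DsRed ratio, decoded by Illumina sequencing, PSI is the read-weighted mean bin number.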

For VARTHLTEDTPKVNADIEKVNQNQ [NSDHL], the protein stability index by setting is: (treatment: DMSO) 5.08 ± 0.22; (treatment: MLN4924 1 uM, 8 h) 5.06 ± 0.11.
Consider CTNTYVTGLSMIANGGAICAVTFF [OR4A15], for which the protein stability index (treatment: DMSO) was 3.25 ± 0.52 and the protein stability index (treatment: MLN4924 1 uM, 8 h) is 3.33 ± 0.38.
In the same order, the values of VKAATTEPTEVEEVVPALEPTETL [BCL2L13] are 5.65 ± 0.16 and 5.67 ± 0.14.
The corresponding values for VKVIMDALDERAKVLHEDKQTREQ [TRIM29] are 3.84 ± 0.098 and 3.84 ± 0.39.
In the same order, the values of THADMDGKRTPRGRRGWKKFYAVL [PSD2] are 2.65 ± 0.15 and 2.9 ± 0.11.
Take SLSNAVANTMEHLSLLDNNIPGNS [FBXO33]: the protein stability index reads like this: (treatment: DMSO) 3.64 ± 0.092; (treatment: MLN4924 1 uM, 8 h) 3.94 ± 0.28.
The corresponding values for RTAMPYGGYEKASKRMTFQMPKFD [MYOZ1] are 2.76 ± 0.18 and 2.86 ± 0.23.
The corresponding values for DDLTSVTNHGYRVQVENPERFSSA [TRIM35] are 4.44 ± 0.24 and 4.588 ± 0.031.
The corresponding values for ELKKLKNLEGNELQRHADEFLLDL [FUT8] are 3.61 ± 0.25 and 3.59 ± 0.3.
NTLRSQLGDRLNVEVDTAPTVDLN [KRT34]: the protein stability index is 4.84 ± 0.18 (treatment: DMSO) and 4.84 ± 0.15 (treatment: MLN4924 1 uM, 8 h).
As to TRQKKNLPDSPLRFDGLPAVLGFP [TRIM15], the protein stability index is, setting by setting: (treatment: DMSO) 2.85 ± 0.3; (treatment: MLN4924 1 uM, 8 h) 2.92 ± 0.3.
The corresponding values for TTLEIHNTEERQKRQVTHFQFLSW [PTPN9] are 2.28 ± 0.41 and 2.78 ± 0.59.
The corresponding values for ELQSLMHQPKGLEEENAQLRGALQ [PBXIP1] are 4.25 ± 0.23 and 4.04 ± 0.29.
In the same order, the values of MAEEQGRERDSVPKPSVLFLHPDL [ALG2] are 4.36 ± 0.15 and 4.5 ± 0.32.
In the case of LAAVAWVGQQVHNLLLTYLIVTSL [ARL6IP1], the protein stability index runs as follows: (treatment: DMSO) 3.32 ± 0.44; (treatment: MLN4924 1 uM, 8 h) 3.3 ± 0.53.
In the same order, the values of TLEQILEHLDNLRLNLTNTKQNFF [INTS3] are 2.23 ± 0.54 and 2.31 ± 0.11.
In the same order, the values of LAMGTVSLGQLPLPPIPHVFSAGT [PLAGL1] are 2.24 ± 0.26 and 2.4 ± 0.34.
With EKFVFFIGSKNGGKTTIILRCLDR [DYNC2LI1], the protein stability index turned out to be 3.27 ± 0.27 (treatment: DMSO) and 2.53 ± 0.22 (treatment: MLN4924 1 uM, 8 h).
The corresponding values for QSIEYAGQQDQVKLHDFFSYLMDH [PPEF2] are 2.94 ± 0.26 and 2.92 ± 0.49.
In the same order, the values of YLKSCRRMKKNGMEMTRPTPPHLT [NOL4L] are 2.89 ± 0.19 and 2.96 ± 0.25.
The corresponding values for VFLGNKRSLSERTVDKCFGRKKYD [SPATS1] are 2.82 ± 0.24 and 3.21 ± 0.16.
The sequence GLLLGSHGLLGSPVRAAASSPVTT [CDC25B] gave a protein stability index (treatment: DMSO) of 2.74 ± 0.28 and a protein stability index (treatment: MLN4924 1 uM, 8 h) of 3.26 ± 0.31.
The corresponding values for EHPNLVRDHVETELLKEAELIRNI [TEKT4] are 4.6 ± 0.12 and 4.56 ± 0.21.
In the same order, the values of WEWNELIPQGICPVGRSWHSLTPV [KLHDC2] are 2.16 ± 0.27 and 2.27 ± 0.21.
The corresponding values for SRQLLPGDEFSLREHELLCRADHG [ISL2] are 4.19 ± 0.17 and 4.27 ± 0.089.
Regarding KAIKARGEVIHCKLRAMKELSEAA [STX11], the protein stability index reads like this: (treatment: DMSO) 3.32 ± 0.29; (treatment: MLN4924 1 uM, 8 h) 3.6 ± 0.2.
For AKNLQEAEEWYKSKYADLSDAANR [PRPH], the protein stability index was found to be 4.43 ± 0.18 (treatment: DMSO) and 4.48 ± 0.22 (treatment: MLN4924 1 uM, 8 h).
In the same order, the values of ELVALIPHSDQRLRPQRTKQYVLL [TMEM106C] are 2.02 ± 0.33 and 2.17 ± 0.22.
In the same order, the values of REARKRALARKQAQEQLRPQTPEP [RSPH3] are 5.04 ± 0.28 and 5.12 ± 0.15.
In the same order, the values of LAVYIDKVRSLETENSALQLQVTE [LMNB1] are 2.25 ± 0.24 and 2.52 ± 0.083.
RALATSNARAQQRAAAQQRRSFLN [GNAS] registered a protein stability index (treatment: DMSO) of 4.02 ± 0.15 and a protein stability index (treatment: MLN4924 1 uM, 8 h) of 4.3 ± 0.13.
In the same order, the values of TPRSPEGTTEAATQDGKEQPELPC [PXN] are 5.38 ± 0.22 and 5.36 ± 0.23.
The corresponding values for GVGKSALTVQFVQGIFVEKYDPTI [RAP1B] are 2.25 ± 0.28 and 2.07 ± 0.25.
Turning to KNWRNFASKWGMSYDELCFLEQRP [EDARADD], the protein stability index runs as follows: (treatment: DMSO) 2.06 ± 0.18; (treatment: MLN4924 1 uM, 8 h) 2.02 ± 0.23.
Take SSFFFSGVFVGVISFGQLSDRFGR [SLC22A15]: the protein stability index (treatment: DMSO) worked out at 2.96 ± 0.94 and the protein stability index (treatment: MLN4924 1 uM, 8 h) turned out to be 3.021 ± 0.018.
The corresponding values for ETREYAPPSRGHGYRDYGHSRRHE [RBMY1A1] are 4.58 ± 0.35 and 4.71 ± 0.13.
In the same order, the values of TSIQWKNHDQNNHNTDRSSHKDSM [EDNRA] are 5.05 ± 0.12 and 5.14 ± 0.2.
On to VKELRPQLMTSQFISVFSNLLESK [ZER1], for which the protein stability index reads like this: (treatment: DMSO) 2.38 ± 0.24; (treatment: MLN4924 1 uM, 8 h) 2.61 ± 0.44.
PEEKIWEELSVLEVFEGREDSIFG [MAGEA6]: the protein stability index was 4.23 ± 0.29 (treatment: DMSO) and 4.17 ± 0.39 (treatment: MLN4924 1 uM, 8 h).
The corresponding values for LGLSRAQPVQSKPQKASAPAADPP [PDLIM7] are 4.71 ± 0.16 and 4.86 ± 0.37.
RDSTARRPRPQGRSVSEPRDQHPQ [RTN2]: the protein stability index runs as follows: (treatment: DMSO) 5.305 ± 0.037; (treatment: MLN4924 1 uM, 8 h) 5.23 ± 0.098.
The corresponding values for SGRRGPPPPPRSRGPPRGLRGGRG [RBMX] are 4.87 ± 0.25 and 5.14 ± 0.3.
Sequence ERLQAAGTDSAGPKTVPSHVFSEL [ELOA2] displayed a protein stability index (treatment: DMSO) of 4.06 ± 0.15 and a protein stability index (treatment: MLN4924 1 uM, 8 h) of 4.4 ± 0.14.
In the case of NLQPPASLQTGNHSNGPTDLSMKG [NOL4L], the protein stability index runs as follows: (treatment: DMSO) 4.66 ± 0.25; (treatment: MLN4924 1 uM, 8 h) 4.61 ± 0.21.
The corresponding values for SQEESEEGEEDATSEVDKRRTRPR [CHGB] are 5.57 ± 0.33 and 5.59 ± 0.2.
In the same order, the values of TKPQNLNDAYGPPSNFLEIDVSNP [SNX3] are 4.46 ± 0.42 and 4.29 ± 0.47.
In the same order, the values of DTFKVPKEMFTVGCCVFAFLVGLL [SLC6A17] are 2.3 ± 0.51 and 2.21 ± 0.6.
With KMQQSKNQVVSSTNGELNTDDPTA [CSNK1G3], the protein stability index reads like this: (treatment: DMSO) 5.37 ± 0.21; (treatment: MLN4924 1 uM, 8 h) 5.34 ± 0.13.
The corresponding values for VLQERVRIFAHKIYLSTSSSKFYD [RHOBTB2] are 2.6 ± 0.54 and 2.33 ± 0.46.
In the same order, the values of FDIARIERCNQLLRALKLVITALK [ZER1] are 2.33 ± 0.6 and 2.41 ± 0.37.
The corresponding values for GKPLIPPMNRRNILVMKHNYSQDA [NETO1] are 2.98 ± 0.4 and 3.31 ± 0.28.
Consider NEIIKKLQGDLKTLMGKLKLKNTV [SASS6], for which the protein stability index (treatment: MLN4924 1 uM, 8 h) is 2.21 ± 0.35.
On to AANVVSAKRNRLAPAHVDEQVFLY [ZBED1], for which the protein stability index worked out at 2.55 ± 0.12 (treatment: DMSO) and 2.47 ± 0.27 (treatment: MLN4924 1 uM, 8 h).
In the same order, the values of TGVVEFVRKEDMTYAVRKLDNTKF [SRSF1] are 3.02 ± 0.3 and 3.26 ± 0.29.
In the same order, the values of LMISENNFLFRNAASTLTERPCYN [ANKRD40] are 2.16 ± 0.31 and 2.36 ± 0.27.
The corresponding values for PPLSGALASITETIQVHRRYWRSL [HDAC6] are 2.99 ± 0.33 and 3.15 ± 0.4.
With DEDDSEELEEDDGHGAEQAAAFPT [EHMT1], the protein stability index was 5.58 ± 0.27 (treatment: DMSO) and 5.7 ± 0.29 (treatment: MLN4924 1 uM, 8 h).
The corresponding values for FGHVMHQICAQVSFFFPPVNLPIS [NLN] are 2.71 ± 0.69 and 3.42 ± 0.31.
The corresponding values for PNALIASLALGDLIYVVIDLPINV [EDNRA] are 3.12 ± 0.42 and 3.03 ± 0.35.
The corresponding values for RPRYKADVPDLQSVCSCTCYRSQD [KCNK9] are 3.34 ± 0.41 and 3.67 ± 0.23.
In the case of PVHIHPAFARQAAQEPSAVPRAGP [FOXJ1], the protein stability index runs as follows: (treatment: DMSO) 4.45 ± 0.088; (treatment: MLN4924 1 uM, 8 h) 4.22 ± 0.15.
On to ANAFQQEAQTSGKERLLLSAAVPA [CHIT1], for which the protein stability index by setting is: (treatment: DMSO) 4.03 ± 0.33; (treatment: MLN4924 1 uM, 8 h) 4.18 ± 0.28.
In the same order, the values of ETQLKACASFIRTRLLLQFTQPQQ [C8orf76] are 2.93 ± 0.65 and 2.86 ± 0.88.
In the same order, the values of VVIDKHPVRFFVHKRPHVDFFLEV [CTDNEP1] are 2.22 ± 1.1 and 3.06 ± 0.87.
The corresponding values for LIFGLITCLTGVLGVGLGVEISRR [SPNS1] are 2.66 ± 0.23 and 3.13 ± 0.46.
In the case of KPYIAAHFDVLPTEFTLGDDKHYG [PTPRD], the protein stability index reads like this: (treatment: DMSO) 3.28 ± 0.49; (treatment: MLN4924 1 uM, 8 h) 3.44 ± 0.14.
The corresponding values for PLVLTEVLFNEKIREQIKKYRRHF [EIF5] are 2.31 ± 0.35 and 2.28 ± 0.33.
Consider GVMLYTLLVGRYPFHDSDPSALFS [TRIB1], for which the protein stability index is, setting by setting: (treatment: DMSO) 2.52 ± 0.37; (treatment: MLN4924 1 uM, 8 h) 2.7 ± 0.46.
In the same order, the values of EHQPDNIKALFRKGKVLAQQGEYS [FKBP8] are 3.97 ± 0.36 and 3.87 ± 0.19.
The corresponding values for NSFGLRFGKREAAPGNHGRSAGRG [KISS1] are 4.44 ± 0.4 and 4.4 ± 0.46.
The corresponding values for QLQDFNIPQAGGWGPWGPWGDCSR [ADAMTS4] are 2.56 ± 0.59 and 3 ± 0.8.
In the case of GRLILSTIRLRPRQVLCEKCKSTL [PWWP2B], the protein stability index reads like this: (treatment: DMSO) 2.2 ± 0.4; (treatment: MLN4924 1 uM, 8 h) 2.56 ± 0.55.
In the same order, the values of LQIYQYVPKDQRLQAIKAAIMLLP [DLC1] are 2.64 ± 0.62 and 2.41 ± 0.58.
